According to US20050276799A1 (PDL BIOPHARMA, published 2005):
Numbering of substitutions follows the chain as printed. Names and notes keep the numbering of the source.

B1: OST577-IgG1 wild-type (antibody)
heavy: not shown
light: SYVLTQPPSVSVAPGQTARITCGGDNIGSKSVNWFQQKPGQAPVLVVYDDNERPSGISERFSGSNSGNTATLTISRVEAGDEADYYCQVWDSSSDHVVFGGGTKLTVLGQPKAAPSVTLFPPSSEELQANKATLVCLISDFYPGAVTVAWKADSSPVKAGVETTTPSKQSNNKYAASSYLSLTPEQWKSHRSYSCQVTHEGSTVEKTVAPTECS
notes: Human anti-HBV antibody, IgG1 heavy, lambda-2 light
B2: OST577-IgG1 M428L (antibody)
heavy: not shown
light: B1 light
B3: OST577-IgG1 T250Q/M428L (antibody)
heavy: not shown
light: B1 light
B4: OST577-IgG1 T250Q (antibody)
heavy: not shown
light: B1 light
B5: OST577-IgG2M3 L314A (antibody)
heavy: QVQLVESGGGVVQPGRSLRLSCAASGFTFSRYGMHWVRQAPGKGLEWVAVISYDGSNKWYADSVKGRFTISRDNSKNTLFLQMHSLRAADTGVYFCAKDQLYFGSQSPGHYWGQGTLVTVSSASTKGPSVFPLAPCSRSTSESTAALGCLVKDYFPEPVTVSWNSGALTSGVHTFPAVLQSSGLYSLSSVVTVPSSNFGTQTYTCNVDHKPSNTKVDKTVERKCCVECPPCPAPPAAAPSVFLFPPKPKDTLMISRTPEVTCVVVDVSHEDPEVQFNWYVDGVEVHNAKTKPREEQFNSTFRVVSVLTVVHQDWANGKEYKCKVSNKGLPAPIEKTISKTKGQPREPQVYTLPPSREEMTKNQVSLTCLVKGFYPSDIAVEWESNGQPENNYKTTPPMLDSDGSFFLYSKLTVDKSRWQQGNVFSCSVMHEALHNHYTQKSLSLSPSK
light: B1 light
B6: OST577-IgG2M3 T250V (antibody)
heavy: B5 heavy with T251V, A315L
light: B1 light
B7: OST577-IgG2M3 T250S (antibody)
heavy: B5 heavy with T251S, A315L
light: B1 light
B8: OST577-IgG2M3 L314Q (antibody)
heavy: B5 heavy with A315Q
light: B1 light
B9: OST577-IgG2M3 L314W (antibody)
heavy: B5 heavy with A315W
light: B1 light
B10: OST577-IgG2M3 L314R (antibody)
heavy: B5 heavy with A315R
light: B1 light
B11: OST577-IgG2M3 T250A (antibody)
heavy: B5 heavy with T251A, A315L
light: B1 light
B12: OST577-IgG2M3 M428G (antibody)
heavy: B5 heavy with A315L, M429G
light: B1 light
B13: OST577-IgG2M3 T250D (antibody)
heavy: B5 heavy with T251D, A315L
light: B1 light
B14: OST577-IgG2M3 T250Q/M428L (antibody)
heavy: B5 heavy with T251Q, A315L, M429L
light: B1 light
B15: OST577-IgG2M3 T250Q (antibody)
heavy: B5 heavy with T251Q, A315L
light: B1 light
B16: OST577-IgG2M3 M428L (antibody)
heavy: B5 heavy with A315L, M429L
light: B1 light
B17: OST577-IgG2M3 T250Q/M428F (antibody)
heavy: B5 heavy with T251Q, A315L, M429F
light: B1 light
B18: OST577-IgG1 T250E/M428F (antibody)
heavy: not shown
light: B1 light
B19: OST577-IgG1 M428F (antibody)
heavy: not shown
light: B1 light
B20: OST577-IgG1 T250E (antibody)
heavy: not shown
light: B1 light

Biological target: T1, recombinant, GPI-linked human FcRn on cell line NS0 HuFcRn (memb), clone 7-3 (human, UniProt P55899 24-297; P61769 21-119)
T1 construct: Expressed from pDL208 on the surface of NS0 cells; also called human neonatal Fc receptor; not shown: human c-myc decapeptide flanked by linker peptides, then GPI linkage signal of human decay accelerating factor (vector p)
Experiment: IC50 of wild-type / IC50 of this antibody, same assay

Compared with B1, B2 is higher in “Relative Binding” value: 1 ratio for the first, 11 ratio for the second.

Going from B3 to B4, the “Relative Binding” value falls from 29 ratio to 3.3 ratio.

Biological target: T1, recombinant, GPI-linked human FcRn on …
Experiment: as above
Remark: another data set of the same source

Going from B5 to B6, the “Relative Binding” value rises from 0.16 ratio to 0.56 ratio.

Going from B7 to B8, the “Relative Binding” value falls from 0.89 ratio to 0.33 ratio.

First: B9
Second: B10
The “Relative Binding” value of the first is higher: 0.53 ratio for the first, 0.11 ratio for the second.

First: B11
Second: B12
The “Relative Binding” value of the first is higher: 0.8 ratio for the first, 0.072 ratio for the second.

B13 was tested, and the “Relative Binding” value was under 0.05 ratio.

Biological target: T1, recombinant, GPI-linked human FcRn on …
Experiment: competition FACS vs biotinylated OST577-IgG2M3 on NS0 cells expressing human FcRn, FBB pH 6.0

Going from B14 to B15, the IC50 rises from 0.43 µg/mL to 4.2 µg/mL (9.8-fold).

B16 and B17 are within 1.5-fold of each other in IC50: 1.79 µg/mL for the first, 1.5 µg/mL for the second.

Biological target: T2, recombinant, GPI-linked rhesus FcRn on cell line NS0 RhFcRn, clone R-3 (rhesus, UniProt H9Z6D2 24-297; Q6V7J5 21-119, GPI-linked)
T2 construct: Expressed from pDL410 on the surface of NS0 cells; not shown: human c-myc decapeptide flanked by linker peptides, then GPI linkage signal of human decay accelerating factor (vector p)
Experiment: IC50 of wild-type / IC50 of this antibody, same assay

Compared with B14, B15 is lower in “Relative Binding” value: 27 ratio for the first, 3.6 ratio for the second.

Going from B16 to B17, the “Relative Binding” value rises from 7.7 ratio to 8.4 ratio.

Biological target: T1, recombinant, GPI-linked human FcRn on …
Experiment: competition FACS vs biotinylated OST577-IgG1 on NS0 cells expressing human FcRn, FBB pH 6.0

Going from B1 to B18, the IC50 falls from 13.9 µg/mL to 0.99 µg/mL (14-fold).

Going from B19 to B20, the IC50 rises from 3.44 µg/mL to 5.26 µg/mL (1.5-fold).

Biological target: T2, recombinant, GPI-linked rhesus FcRn on …
Experiment: competition FACS vs biotinylated OST577-IgG1 on NS0 cells expressing rhesus FcRn, FBB pH 6.0

First: B1
Second: B2
The IC50 of the first is 14-fold higher: 8.86 µg/mL for the first, 0.629 µg/mL for the second.

Going from B3 to B4, the IC50 rises from 0.236 µg/mL to 2.97 µg/mL (13-fold).

Biological target: T2, recombinant, GPI-linked rhesus FcRn on …
Experiment: competition FACS vs biotinylated OST577-IgG2M3 on NS0 cells expressing rhesus FcRn, FBB pH 6.0

First: B14
Second: B15
The IC50 of the first is 7.3-fold lower: 0.554 µg/mL for the first, 4.05 µg/mL for the second.

B16 and B17 are within 1.5-fold of each other in IC50: 1.92 µg/mL for the first, 1.77 µg/mL for the second.

Biological target: T1, recombinant, GPI-linked human FcRn on …
Experiment: competition FACS vs biotinylated HuEP5C7-IgG2M3 on NS0 cells expressing human FcRn, FSB pH 6.0

Going from B5 to B6, the IC50 falls from 68.7 µg/mL to 19 µg/mL (3.6-fold).

Going from B7 to B8, the IC50 rises from 12 µg/mL to 32 µg/mL (2.7-fold).

First: B9
Second: B10
The IC50 of the first is 5-fold lower: 20.2 µg/mL for the first, 102 µg/mL for the second.

Compared with B11, B12 is 11-fold higher in IC50: 13.3 µg/mL for the first, 147 µg/mL for the second.

Biological target: T2, recombinant, GPI-linked rhesus FcRn on …
Experiment: IC50 of wild-type / IC50 of this antibody, same assay
Remark: another data set of the same source

Compared with B1, B2 is higher in “Relative Binding” value: 1 ratio for the first, 14 ratio for the second.

Going from B3 to B4, the “Relative Binding” value falls from 37 ratio to 3 ratio.

Biological target: T1, recombinant, GPI-linked human FcRn on …
Experiment: as above
Remark: another data set of the same source

Going from B14 to B15, the “Relative Binding” value falls from 28 ratio to 2.8 ratio.

Compared with B16, B17 is higher in “Relative Binding” value: 6.7 ratio for the first, 8 ratio for the second.

Biological target: T1, recombinant, GPI-linked human FcRn on …
Experiment: as above
Remark: another data set of the same source

Compared with B1, B18 is higher in “Relative Binding” value: 1 ratio for the first, 14 ratio for the second.

Going from B19 to B20, the “Relative Binding” value falls from 4 ratio to 2.6 ratio.

Biological target: T1, recombinant, GPI-linked human FcRn on …
Experiment: competition FACS vs biotinylated OST577-IgG1 on NS0 cells expressing human FcRn, FBB pH 6.0
Remark: another data set of the same source

Going from B1 to B2, the IC50 falls from 10.3 µg/mL to 0.896 µg/mL (11-fold).

First: B3
Second: B4
The IC50 of the first is 8.9-fold lower: 0.351 µg/mL for the first, 3.14 µg/mL for the second.
